Assay results taken from patent US20250326807A1 (published 2025).

Biological target: T1, Recombinantly expressed fused calprotectin (His6-linker-S100A9-linker-S100A8), product code B-RCAL, BÜHLMANN … (human, UniProt P06702 1-114; P05109 1-93)
T1 construct: Bought fusion protein; also called CP; human recombinant calprotectin
T1 sequence: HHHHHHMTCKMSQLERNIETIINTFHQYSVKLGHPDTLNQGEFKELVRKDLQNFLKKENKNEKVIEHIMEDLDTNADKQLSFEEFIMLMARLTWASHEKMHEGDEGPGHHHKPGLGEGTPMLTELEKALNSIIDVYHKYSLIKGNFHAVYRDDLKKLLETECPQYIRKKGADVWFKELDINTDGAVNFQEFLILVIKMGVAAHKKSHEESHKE
Assay: fluorescence polarization, 20 nM fluorescent peptide, calprotectin titrated
Protocol: The reaction mixture was incubated at 30° C. for 1 hr, and the completion of the reaction was assessed by LCMS. The reaction was stopped by addition of HCOOH (200 μL) and the cyclized peptide was lyophilized. The final purification was performed as before with a reversed-phase C18 column (X-bridge peptide BEH C18 5 μm, 300 Å, 10×250 mm, Waters) applying a flow rate of 6 mL/min and an appropriate linear gradient in 40 min. Fractions containing the desired peptide were lyophilized. The purity of the peptides was assessed by analysing around 20 μg of peptide by RP-HPLC (1260 HPLC system, Agilent) using a C18 column (ZORBAX 300SB-C18, 5 μm, 300 Å, 4.6×250 mm, Agilent). Peptides were run at a flow rate of 1 mL min⁻¹ with a linear gradient of 0-100% of solvent B over 15 min (A: 94.9% H₂O, 5% ACN and 0.1% TFA; B: 99.9% ACN and 0.1% TFA). The mass was determined by electrospray ionization mass spectrometry (ESI-MS) in positive ion mode on a single quadrupole liquid chromatography mass spectrometer (LCMS-2020, Shimadzu). […] Fluorescence anisotropy was measured on a microwell plate reader (Infinite M200Pro, Tecan), with a filter for excitation at 485 nm and emission at 535 nm. Dissociation constant (Kd) was calculated using the following equation on Prism 5 (GraphPad): […]

B1: Peptide 3 Isomer 1 (RCPECVAFPMFQCHWYCG with cross-linked neighboring cysteines) (peptide)
peptide: RCPECVAFPMFQCHWYCG
modifications: neighboring cysteines cross-linked by chemical linkers (linker not named); N-terminal 5(6)-carboxyfluorescein; synthesised on rink amide AM resin
notes: Both pairs of neighboring cysteines bridged
With B1 the Kd was about 24 nM.
